From patent publication US20260022354, “TRANSPOSASES AND USES THEREOF” (Poseida Therapeutics, Inc., published 2026)
Substitutions are numbered along the chain they refer to.

T1: GFP1 Right TAL-PBx (synthetic)
T1 chain: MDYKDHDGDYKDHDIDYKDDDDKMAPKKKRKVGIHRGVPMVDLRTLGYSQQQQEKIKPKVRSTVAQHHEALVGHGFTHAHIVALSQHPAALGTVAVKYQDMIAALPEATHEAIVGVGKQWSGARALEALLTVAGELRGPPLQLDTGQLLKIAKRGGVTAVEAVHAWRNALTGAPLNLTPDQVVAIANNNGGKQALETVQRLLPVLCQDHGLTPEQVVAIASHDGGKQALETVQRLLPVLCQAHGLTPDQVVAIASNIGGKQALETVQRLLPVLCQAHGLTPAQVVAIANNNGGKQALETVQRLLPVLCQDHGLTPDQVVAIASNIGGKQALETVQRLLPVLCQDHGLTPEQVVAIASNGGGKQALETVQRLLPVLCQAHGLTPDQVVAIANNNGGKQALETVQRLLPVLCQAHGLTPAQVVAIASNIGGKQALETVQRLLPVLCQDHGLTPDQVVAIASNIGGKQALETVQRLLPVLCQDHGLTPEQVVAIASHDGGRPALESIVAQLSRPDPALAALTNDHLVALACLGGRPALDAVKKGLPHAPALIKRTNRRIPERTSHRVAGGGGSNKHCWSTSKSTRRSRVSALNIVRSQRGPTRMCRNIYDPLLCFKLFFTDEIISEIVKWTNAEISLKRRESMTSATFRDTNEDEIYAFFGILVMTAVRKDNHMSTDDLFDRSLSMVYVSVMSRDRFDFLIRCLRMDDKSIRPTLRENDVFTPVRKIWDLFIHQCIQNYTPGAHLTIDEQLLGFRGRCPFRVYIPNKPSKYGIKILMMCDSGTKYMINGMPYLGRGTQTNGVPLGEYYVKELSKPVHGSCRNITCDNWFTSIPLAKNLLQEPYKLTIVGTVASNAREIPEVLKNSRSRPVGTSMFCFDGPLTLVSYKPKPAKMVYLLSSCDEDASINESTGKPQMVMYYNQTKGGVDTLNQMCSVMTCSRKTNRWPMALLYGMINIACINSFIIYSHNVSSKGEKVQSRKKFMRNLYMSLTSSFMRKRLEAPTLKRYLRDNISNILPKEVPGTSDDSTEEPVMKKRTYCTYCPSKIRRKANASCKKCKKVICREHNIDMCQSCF

B1: GFP1 Right 13bp CTTAAC (dsDNA)
DNA 1: TGCAGATGAACGCAATCTCACGGCTTAACTACTGACCTGAAGTTCATCTGCA
DNA 2: TGCAGATGAACTTCAGGTCAGTAGTTAAGCCGTGAGATTGCGTTCATCTGCA
B2: GFP1 Right 13bp TTTAAA (dsDNA)
DNA 1: B1 DNA 1 with C24T, C29A
DNA 2: B1 DNA 2 with G24T, G29A
B3: GFP1 Right 13bp CTTAAA (dsDNA)
DNA 1: B1 DNA 1 with C29A
DNA 2: B1 DNA 2 with G24T
B4: GFP1 Right 13bp CTTAAG (dsDNA)
DNA 1: B1 DNA 1 with C29G
DNA 2: B1 DNA 2 with G24C
B5: GFP1 Right 13bp TTTAAG (dsDNA)
DNA 1: B1 DNA 1 with C24T, C29G
DNA 2: B1 DNA 2 with G24C, G29A
B6: GFP1 Right 12bp TTTAAA (dsDNA)
DNA 1: TGCAGATGAACGCAATCTCCGGTTTAAATACTGACTGAAGTTCATCTGCA
DNA 2: TGCAGATGAACTTCAGTCAGTATTTAAACCGGAGATTGCGTTCATCTGCA
B7: GFP1 Right 12bp CTTAAA (dsDNA)
DNA 1: B6 DNA 1 with T23C
DNA 2: B6 DNA 2 with A28G

Target: T1, GFP1 Right TAL-PBx
Assay: cell_activity; HEK293T
Details: tags: PBx fusion; chain copies: 2 (palindromic half-sites; inferred)
Experimental: Each reporter plasmid and donor plasmid were cotransfected into HEK293T cells with the GFP1 Right TAL-PBx expression plasmid (SEQ ID No. 77). […] HEK293T cells were plated in 24 well plates in 500 μL of DMEM medium supplemented with 10% FBS. The following day, a transfection mixture containing 50 ng of the TAL-ssSPB expression vector, 225 ng of the reporter plasmid, 225 ng of donor plasmid and 1 μL of JetPrime transfection reagent in a total volume of 50 μL of JetPrime buffer were assembled. The mixture was added to the HEK293T cells and the cells were incubated for four days at 37° C. at 5% CO2, splitting the cells 1:6 on day one. The percentage of on-target site-specific transposition positive cells for the various constructs were determined by FACS analysis on day 4.
When the reporter and donor plasmids are co-transfected into cells along with TAL-PBx, TAL-PBx catalyzes the excision of the transposon from the donor plasmid and its site-specific integration into the TTAA target site of the reporter plasmid. Following site-specific transposition, transcription, splicing, and translation, a reconstituted GFP coding sequence is produced (DNA SEQ ID No. 75; Amino acid SEQ ID No. 76) and fluorescence can be detected. The percentage of on-target site-specific transposition positive cells for the various spacer length constructs were determined by FACS analysis and the results are shown in Table 9.

Binder | activity [% GFP+ cells]
B1 | 20.9
B2 | 27
B3 | 32.8
B4 | 24.7
B5 | 32.2
B6 | 30.8
B7 | 34.6
